Numbered stars: 1 amine (or outer) side, 2 acyl side, 3 side chain; on linkers, the order of the positions; unused ones are H or OH. Square brackets hold non-standard residues; d marks the D form. Side chains are listed from the residue outwards. Ends that are not written are not given here. * marks the point of attachment. C18 diacid = O=C(O)CCCCCCCCCCCCCCCCC(=O)*; αMePhe(2-F) = C[C@](N)(Cc1ccccc1F)C(=O)O; γGlu = O=C(O)[C@H](CCC(=O)[*:2])N[*:1]; αMeL = CC(C)C[C@](C)(N)C(=O)O; AEEA = NCCOCCOCC(=O)O; Aib = CC(C)(N)C(=O)O
Biological target: T1, human gastric inhibitory peptide receptor (hGIPR) (Homo sapiens, UniProt P48546)
T1 construct: expressed in transfected cells; host or cells: HEK293
T1 sequence (P48546 22-466): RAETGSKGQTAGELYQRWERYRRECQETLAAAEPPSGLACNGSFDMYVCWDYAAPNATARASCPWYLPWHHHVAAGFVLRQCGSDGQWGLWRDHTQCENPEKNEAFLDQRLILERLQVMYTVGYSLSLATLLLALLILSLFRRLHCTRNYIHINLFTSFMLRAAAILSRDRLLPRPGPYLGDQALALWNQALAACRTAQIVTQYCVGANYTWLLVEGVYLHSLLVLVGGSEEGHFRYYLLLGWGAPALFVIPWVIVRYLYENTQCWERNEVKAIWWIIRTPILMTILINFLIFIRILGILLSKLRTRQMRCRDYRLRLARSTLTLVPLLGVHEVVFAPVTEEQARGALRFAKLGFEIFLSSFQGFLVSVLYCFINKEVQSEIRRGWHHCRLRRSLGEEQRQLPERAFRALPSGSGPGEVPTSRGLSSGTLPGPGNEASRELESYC
Assay: cAMP pharmacological functional assay in presence of 0.1% casein, hGIPR
Type: cell-based
Conditions: ratio of hGIPR to hGLP1R cAMP EC50 ratios
Protocol: Each receptor over-expressing cell line (20 μl) is treated with the test peptide in DMEM (Gibco Cat #31053) supplemented with 0.1% Casein (Sigma Cat #C4765), 250 μM IBMX, 1× GlutaMAX™ (Gibco Cat #35050), and 20 mM HEPES (HyClone Cat #SH30237.01) in a 20 μl assay volume. […] EC50 is the concentration of compound causing half-maximal simulation in a dose response curve. A relative EC50 value is derived by non-linear regression analysis using the percent maximal response vs. the concentration of peptide added, fitted to a four-parameter logistic equation.
Intracellular cAMP levels are determined by extrapolation using a standard curve. Dose response curves of compounds are plotted as the percentage of stimulation normalized to minimum (buffer only) and maximum (maximum concentration of each control ligand) values and analyzed using a four parameter non-linear regression fit with a variable slope (Genedata Screener 13). EC50 is the concentration of compound causing half-maximal simulation in a dose response curve.
EC50 is the concentration of compound causing half-maximal simulation in a dose response curve.

Substance | [hGIPR/hGLP1R] EC50 Ratio
Y-Aib-EGT-αMeF(2F)-TSD-4Pal-SI-αMeL-LDKK((2-[2-(2-Amino-ethoxy)-ethoxy]-acetyl)-(γGlu)-(2-[2-(2-Amino-ethoxy)-ethoxy]-acetyl)-CO—(CH2)18—CO2H)AQ-Aib-EFI-(D-Glu)-YLIEGGPSSGAPPPS-NH2 (YXEGTXTSDXSIXLDKKAQXEFIXYLIEGGPSSGAPPPS; Aib, αMeF(2F), 4Pal, αMeL, D-Glu; lipidated K; amide; (2)..(2) Xaa at position 2 is Aib; (6)..(6) Xaa at position 6 is alpha-methyl-Phe(2F); (10)..(10) Xaa at position 10 is 4Pal; (13)..(13) Xaa at position 13 is alpha-methyl-Leu; MOD_RES (17)..(17) Lys at position 17 is chemically modified by conjugation of the epsilon-amino group of the Lys side chain with (2-[2-(2-Amino-ethoxy)-ethoxy]-acetyl)-(gamma-Glu)-(2-[2-(2-Amino- ethoxy)-ethoxy]-acetyl)-CO) [Peptide 202] | 6.73
Y-Aib-EGT-αMeF(2F)-TSD-cTA-SI-αMeL-LDEK((2-[2-(2-Amino-ethoxy)-ethoxy]-acetyl)2-(γGlu)-CO—(CH2)18—CO2H)AQ-Aib-EFIEYLIEGGPSSGAPPPS-NH2 (YXEGTXTSDXSIXLDEKAQXEFIEYLIEGGPSSGAPPPS; Aib, cTA, αMeF(2F), αMeL; acylated lysine C20 diacid; amide; (2)..(2) Xaa at position 2 is Aib; (6)..(6) Xaa at position 6 is alpha-methyl-Phe(2F); (10)..(10) Xaa at position 10 is cTA; (13)..(13) Xaa at position 13 is alpha-methyl-Leu; MOD_RES (17)..(17) Lys at position 17 is chemically modified by conjugation of the epsilon-amino group of the Lys side chain with (2-[2-(2-amino-ethoxy)-ethoxy]-acetyl)2-(gamma-Glu)-CO-(CH2)18- CO2H; (20)..(20) Xaa at positi) [Peptide 155] | 5.97
Y-Aib-EGT-αMeF(2F)-TSDASI-αMeL-LD-Orn-K((2-[2-(2-Amino-ethoxy)-ethoxy]-acetyl)2-(γGlu)-CO—(CH2)16—CO2H)AQ-Aib-AFI-(D-Glu)-αMeY-LIEGGPSSGAPPPS-NH2 (YXEGTXTSDASIXLDXKAQXAFIXXLIEGGPSSGAPPPS; Aib, Orn, αMe residues, lipidated Lys, D-Glu, amide; (2)..(2) Xaa at position 2 is Aib; (6)..(6) Xaa at position 6 is alpha-methyl-Phe(2F); (13)..(13) Xaa at position 13 is alpha-methyl-Leu; (16)..(16) Xaa at position 16 is Orn; MOD_RES (17)..(17) Lys at position 17 is chemically modified by conjugation of the epsilon-amino group of the Lys side chain with (2-[2-(2-amino-ethoxy)-ethoxy]-acetyl)2-(gamma-Glu)-CO-(CH2)16- CO2H; (20)..(20) Xaa at positi) [Peptide 246] | 2.48
Y-Aib-EGT-αMeF(2F)-TSDHSI-αMeL-LD-Dab-K((2-[2-(2-Amino-ethoxy)-ethoxy]-acetyl)2-(γGlu)-CO—(CH2)18—CO2H)AQ-Aib-TFI-(D-Glu)-YLIEGGPSSGAPPPS-NH2 (YXEGTXTSDHSIXLDXKAQXTFIXYLIEGGPSSGAPPPS; Aib, αMeF(2F), αMeL, Dab, D-Glu; lipidated K; amide; (2)..(2) Xaa at position 2 is Aib; (6)..(6) Xaa at position 6 is alpha-methyl-Phe(2F); (13)..(13) Xaa at position 13 is alpha-methyl-Leu; (16)..(16) Xaa at position 16 is Dab; MOD_RES (17)..(17) Lys at position 17 is chemically modified by conjugation of the epsilon-amino group of the Lys side chain with (2-[2-(2-amino-ethoxy)-ethoxy]-acetyl)2-(gamma-Glu)-CO-(CH2)18- CO2H; (20)..(20) Xaa at positi) [Peptide 172] | 2.63
Y-Aib-EGT-αMeF(2F)-TSDHSI-αMeL-LD-Dap-K((2-[2-(2-Amino-ethoxy)-ethoxy]-acetyl)2-(γGlu)-CO—(CH2)18—CO2H)AQ-Aib-TFI-(D-Glu)-YLIEGGPSSGAPPPS-NH2 (YXEGTXTSDHSIXLDXKAQXTFIXYLIEGGPSSGAPPPS; Aib, αMeF(2F), αMeL, Dap, D-Glu; lipidated K; amide; (2)..(2) Xaa at position 2 is Aib; (6)..(6) Xaa at position 6 is alpha-methyl-Phe(2F); (13)..(13) Xaa at position 13 is alpha-methyl-Leu; (16)..(16) Xaa at position 16 is Dap; MOD_RES (17)..(17) Lys at position 17 is chemically modified by conjugation of the epsilon-amino group of the Lys side chain with (2-[2-(2-amino-ethoxy)-ethoxy]-acetyl)2-(gamma-Glu)-CO-(CH2)18- CO2H; (20)..(20) Xaa at positi) [Peptide 173] | 4.80
Y-Aib-EGT-αMeF(2F)-TSDHSI-αMeL-LD-Orn-K((2-[2-(2-Amino-ethoxy)-ethoxy]-acetyl)2-(γGlu)-CO—(CH2)18—CO2H)AQ-Aib-TFI-(D-Glu)-YLIEGGPSSGAPPPS-NH2 (YXEGTXTSDHSIXLDXKAQXTFIXYLIEGGPSSGAPPPS; Aib, αMeF(2F), αMeL, Orn, D-Glu; lipidated K; amide; (2)..(2) Xaa at position 2 is Aib; (6)..(6) Xaa at position 6 is alpha-methyl-Phe(2F); (13)..(13) Xaa at position 13 is alpha-methyl-Leu; (16)..(16) Xaa at position 16 is Orn; MOD_RES (17)..(17) Lys at position 17 is chemically modified by conjugation of the epsilon-amino group of the Lys side chain with (2-[2-(2-amino-ethoxy)-ethoxy]-acetyl)2-(gamma-Glu)-CO-(CH2)18- CO2H; (20)..(20) Xaa at positi) [Peptide 171] | 7.73
Y-Aib-EGT-αMeF(2F)-TSDHSI-αMeL-LDEK((2-[2-(2-Amino-ethoxy)-ethoxy]-acetyl)2-(γGlu)-CO—(CH2)14—CO2H)AQ-Aib-HFI-(D-Glu)-YLIEGGPSSGAPPPS-NH2 (YXEGTXTSDHSIXLDEKAQXHFIXYLIEGGPSSGAPPPS; Aib, αMeF(2F), αMeL, D-Glu; C16 diacid lipidated K; amide; (2)..(2) Xaa at position 2 is Aib; (6)..(6) Xaa at position 6 is alpha-methyl-Phe(2F); (13)..(13) Xaa at position 13 is alpha-methyl-Leu; MOD_RES (17)..(17) Lys at position 17 is chemically modified by conjugation of the epsilon-amino group of the Lys side chain with (2-[2-(2-amino-ethoxy)-ethoxy]-acetyl)2-(gamma-Glu)-CO-(CH2)14- CO2H; (20)..(20) Xaa at position 20 is Aib; (24)..(24) Xaa at positi) [Peptide 178] | 9.77
Y-Aib-EGT-αMeF(2F)-TSDHSI-αMeL-LDEK((2-[2-(2-Amino-ethoxy)-ethoxy]-acetyl)2-(γGlu)-CO—(CH2)16—CO2H)AQ-Aib-HFI-(D-Glu)-YLIEGG-NH2 (Y[Aib]EGT[αMePhe(2-F)]TSDHSI[αMeL]LDEK([AEEA-AEEA-γGlu-C18 diacid])AQ[Aib]HFI[dE]YLIEGG-NH2; N-terminus assumed; SMILES CC[C@H](C)[C@H](NC(=O)[C@H](CC(C)C)NC(=O)[C@H](Cc1ccc(O)cc1)NC(=O)[C@@H](CCC(=O)O)NC(=O)[C@@H](NC(=O)[C@H](Cc1ccccc1)NC(=O)[C@H](Cc1c[nH]cn1)NC(=O)C(C)(C)NC(=O)[C@H](CCC(N)=O)NC(=O)[C@H](C)NC(=O)[C@H](CCCCNC(=O)COCCOCCNC(=O)COCCOCCNC(=O)CC[C@H](NC(=O)CCCCCCCCCCCCCCCCC(=O)O)C(=O)O)NC(=O)[C@H](CCC(=O)O)NC(=O)[C@H](CC(=O)O)NC(=O)[C@H](CC(C)C)NC(=O)[C@](C)(CC(C)C)NC(=O)[C@@H](NC(=O)[C@H](CO)NC(=O)[C@H](Cc1c[nH]cn1)NC(=O)[C@H](CC(=O)O)NC(=O)[C@H](CO)NC(=O)[C@@H](NC(=O)[C@](C)(Cc1ccccc1F)NC(=O)[C@@H](NC(=O)CNC(=O)[C@H](CCC(=O)O)NC(=O)C(C)(C)NC(=O)[C@@H](N)Cc1ccc(O)cc1)[C@@H](C)O)[C@@H](C)O)[C@@H](C)CC)[C@@H](C)CC)C(=O)N[C@@H](CCC(=O)O)C(=O)NCC(=O)NCC(N)=O) [Peptide 180] | 6.27
